From the supplement of paper PMC10126150
± gives the standard deviation of the averaged measurements.

Tested on: ATP
Assay: switch fluorescence ratio, 500 uM ATP over buffer (Cy3 cluster intensity, sum of 5 cycles each) (fold (ratio)); higher = stronger signal-on switching upon ATP binding; sequences stand for … in TCGTCGGCAGCGTCAGATGTGTATAAGAGACAGTTTTTTTTTTTTTTTTTTTTTTTTT…TC
Details: aptamer strand: ATP DNA aptamer (quencher-CACCTGGGGGAGTATTGCGGAGGAAGG + anchor), 100 nM annealed; ATP concentration: 500 uM
How it was run: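 Cy3-labelled switching-strand clusters on a modified Illumina MiSeq flow-cell were annealed to 100 nM quencher-labelled ATP aptamer and imaged first in selection buffer, then after 15 min with 500 uM ATP at 22 °C. NaOH stripping and re-annealing separated each of five buffer/ATP cycles, and clusters outside 100-1000 RFU were excluded. The fluorescence ratio sums target-cycle Cy3 intensity over buffer-cycle Cy3 intensity per cluster and averages it per switch-domain sequence.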
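Note: ATP exposure 15 min at 22 °C before imaging.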

TTGGGACTGG and TTGGGAGGAT are the same in switch fluorescence ratio: 1.12 ± 0.14 for the first, 1.12 ± 0.2 for the second.

TTGGGAGTAC and TTGGGATAGG are within error of each other in switch fluorescence ratio: 0.942 ± 0.059 for the first, 1.01 ± 0.029 for the second.

TTGGGATCCG and TTGGGATGGT are within error of each other in switch fluorescence ratio: 0.985 ± 0.016 for the first, 1.02 ± 0.029 for the second.

TTGGGATTAA and TTGGGATTCT are within error of each other in switch fluorescence ratio: 1.05 ± 0.053 for the first, 0.979 ± 0.019 for the second.

TTGGGCAGTT and TTGGGCATCT are within error of each other in switch fluorescence ratio: 0.98 ± 0.051 for the first, 1.003 ± 0.0031 for the second.

First: TTGGGCCACG
Second: TTGGGCCATG
The switch fluorescence ratio of the first is lower: 0.983 ± 0.011 for the first, 1.05 ± 0.027 for the second.

TTGGGCCCCT and TTGGGCCCGG are within error of each other in switch fluorescence ratio: 0.9967 ± 0.0024 for the first, 0.9878 ± 0.0073 for the second.

TTGGGCGAAT and TTGGGCGCAT are within error of each other in switch fluorescence ratio: 0.988 ± 0.021 for the first, 0.99 ± 0.025 for the second.

TTGGGCGGTT and TTGGGCGTTC are within error of each other in switch fluorescence ratio: 1.13 ± 0.25 for the first, 1.12 ± 0.15 for the second.

TTGGGCTAAT and TTGGGGAA are within error of each other in switch fluorescence ratio: 0.994 ± 0.029 for the first, 0.985 ± 0.025 for the second.

TTGGGGAACC and TTGGGGAAG are within error of each other in switch fluorescence ratio: 0.9866 ± 0.009 for the first, 0.9853 ± 0.0061 for the second.

TTGGGGACGG and TTGGGGAGGC are within error of each other in switch fluorescence ratio: 1 ± 0.038 for the first, 0.9835 ± 0.0015 for the second.

TTGGGGAGGG and TTGGGGAGTG are within error of each other in switch fluorescence ratio: 1.02 ± 0.05 for the first, 0.988 ± 0.017 for the second.

TTGGGGATGA and TTGGGGATTT are within error of each other in switch fluorescence ratio: 1.01 ± 0.016 for the first, 0.997 ± 0.029 for the second.

TTGGGGCAGC and TTGGGGCAGT are within error of each other in switch fluorescence ratio: 0.995 ± 0.013 for the first, 0.997 ± 0.035 for the second.

TTGGGGCGGG and TTGGGGGAAA are within error of each other in switch fluorescence ratio: 1.01 ± 0.039 for the first, 1 ± 0.02 for the second.

TTGGGGGCA and TTGGGGGCGC are within error of each other in switch fluorescence ratio: 1.03 ± 0.045 for the first, 1.01 ± 0.031 for the second.

TTGGGGGCGT and TTGGGGGGA are within error of each other in switch fluorescence ratio: 1.03 ± 0.058 for the first, 0.997 ± 0.048 for the second.

TTGGGGGGCA and TTGGGGGGTC are within error of each other in switch fluorescence ratio: 1.32 ± 0.65 for the first, 1 ± 0.034 for the second.

TTGGGGGTAA and TTGGGGGTGA are within error of each other in switch fluorescence ratio: 0.987 ± 0.018 for the first, 1 ± 0.042 for the second.

TTGGGGGTTG and TTGGGGGTTT are within error of each other in switch fluorescence ratio: 1 ± 0.044 for the first, 1.02 ± 0.036 for the second.

TTGGGGTAAA and TTGGGGTAAG are within error of each other in switch fluorescence ratio: 1.03 ± 0.044 for the first, 0.971 ± 0.03 for the second.

First: TTGGGGTCGA
Second: TTGGGGTGCC
The switch fluorescence ratio of the first is lower: 0.951 ± 0.04 for the first, 1.01 ± 0.018 for the second.

TTGGGGTGTT and TTGGGGTTTC are within error of each other in switch fluorescence ratio: 1 ± 0.031 for the first, 0.998 ± 0.033 for the second.

TTGGGTAGAA and TTGGGTCAGG are within error of each other in switch fluorescence ratio: 0.986 ± 0.045 for the first, 1.02 ± 0.028 for the second.

TTGGGTGAGT and TTGGGTGGCA are within error of each other in switch fluorescence ratio: 1.01 ± 0.014 for the first, 1.03 ± 0.039 for the second.

TTGGGTTAAC and TTGGGTTCCC are within error of each other in switch fluorescence ratio: 0.9737 ± 0.006 for the first, 1.01 ± 0.05 for the second.

TTGGGTTGCG and TTGGGTTGGA are within error of each other in switch fluorescence ratio: 0.964 ± 0.035 for the first, 0.996 ± 0.017 for the second.

TTGGGTTTAC and TTGGGTTTCA are within error of each other in switch fluorescence ratio: 1.02 ± 0.049 for the first, 0.995 ± 0.053 for the second.

TTGGTACTGA and TTGGTAGATT are within error of each other in switch fluorescence ratio: 1.04 ± 0.049 for the first, 0.984 ± 0.047 for the second.

TTGGTAGGTG and TTGGTCAAAT are the same in switch fluorescence ratio: 1.04 ± 0.058 for the first, 1.04 ± 0.022 for the second.

TTGGTCAAGG and TTGGTCGCGG are within error of each other in switch fluorescence ratio: 0.995 ± 0.045 for the first, 0.97078 ± 5.7e-05 for the second.

TTGGTCGGGT and TTGGTCTATG are within error of each other in switch fluorescence ratio: 1.02 ± 0.024 for the first, 0.986 ± 0.027 for the second.

TTGGTCTTTT and TTGGTGACGC are within error of each other in switch fluorescence ratio: 0.976 ± 0.012 for the first, 1.01 ± 0.026 for the second.

TTGGTGATGT and TTGGTGGCGT are within error of each other in switch fluorescence ratio: 0.994 ± 0.044 for the first, 0.995 ± 0.01 for the second.

TTGGTGGGAA and TTGGTGGTTG are within error of each other in switch fluorescence ratio: 1 ± 0.025 for the first, 0.993 ± 0.029 for the second.

Going from TTGGTGTAAG to TTGGTGTCAG, the switch fluorescence ratio rises from 1.0001 ± 0.00079 to 1.02 ± 0.018.

Compared with TTGGTGTCGG, TTGGTGTTCT is higher in switch fluorescence ratio: 0.974 ± 0.036 for the first, 1.08 ± 0.039 for the second.

In the case of TTGGTTACAC, the switch fluorescence ratio is reported as 1.006 ± 0.0013.
